Results from publication PMC3988174, “A Split-Ubiquitin Yeast Two-Hybrid Screen to Examine the Substrate Specificity of atToc159 and atToc132, Two Arabidopsis Chloroplast Preprotein Import Receptors” (PLoS ONE, 2014).

B1: Low PSII accumulation 3 protein (natural protein)
chain: not shown
B2: Photosystem I light harvesting complex gene 2 (natural protein, Arabidopsis thaliana, UniProt Q9SYW8 1-257, looked up)
chain: MASSLCASSAIAAISSPSFLGGKKLRLKKKLTVPAVSRPDASVRAVAADPDRPIWFPGSTPPEWLDGSLPGDFGFDPLGLSSDPDSLKWNVQAEIVHCRWAMLGAAGIFIPEFLTKIGILNTPSWYTAGEQEYFTDKTTLFVVELILIGWAEGRRWADIIKPGSVNTDPVFPNNKLTGTDVGYPGGLWFDPLGWGSGSPAKLKELRTKEIKNGRLAMLAVMGAWFQHIYTGTGPIDNLFAHLADPGHATIFAAFTPK
B3: Cysteine synthase (natural protein)
chain: not shown
B4: Photosystem I subunit F (natural protein, Arabidopsis thaliana, UniProt Q9SHE8 1-221, looked up)
chain: MSLTIPANLVLNPRSNKSLTQSVPKSSARFVCSDDKSSSSTPQSMKAFSAAVALSSILLSAPMPAVADISGLTPCKDSKQFAKREKQQIKKLESSLKLYAPESAPALALNAQIEKTKRRFDNYGKYGLLCGSDGLPHLIVNGDQRHWGEFITPGILFLYIAGWIGWVGRSYLIAISGEKKPAMKEIIIDVPLASRIIFRGFIWPVAAYREFLNGDLIAKDV
B5: AIG2-like avirulence induced gene family protein (natural protein, Arabidopsis thaliana, UniProt Q9MBH2 1-169, looked up)
chain: MTSSDKSLSHDVFVYGSFQEPSVVNLILECSPVMVPAQLHGYHVYRLKGRLHACISPSENGLINGKILTGLTDSQLENLDMIEGSEYVRKTVEVVLTDTSEKKQVETYVWANKDDPNLYGEWDFEEWRRLHMDKFIEASTKFIEWKKNPDGRSREEFEKFVFDDPPTAA
B6: Photosystem I reaction center subunit PSI-N (natural protein, Arabidopsis thaliana, UniProt P49107 1-171, looked up)
chain: MAAMNSSVLTCSYAIAGSGSVELNQKVGLVNSSVGFGQKKQMIMPVIKAQRVVGDDVDGSNGRRSAMVFLAATLFSTAAVSASANAGVIDEYLERSKTNKELNDKKRLATSGANFARAFTVQFGSCKFPENFTGCQDLAKQKKVPFISEDIALECEGKDKYKCGSNVFWKW
B7: Protochlorophyllide oxidoreductase B (natural protein, Arabidopsis thaliana, UniProt P21218 1-401, looked up)
chain: MALQAASLVSSAFSVRKDAKLNASSSSFKDSSLFGASITDQIKSEHGSSSLRFKREQSLRNLAIRAQTAATSSPTVTKSVDGKKTLRKGNVVVTGASSGLGLATAKALAETGKWNVIMACRDFLKAERAAKSVGMPKDSYTVMHLDLASLDSVRQFVDNFRRTETPLDVLVCNAAVYFPTAKEPTYSAEGFELSVATNHLGHFLLARLLLDDLKKSDYPSKRLIIVGSITGNTNTLAGNVPPKANLGDLRGLAGGLNGLNSSAMIDGGDFDGAKAYKDSKVCNMLTMQEFHRRFHEETGVTFASLYPGCIASTGLFREHIPLFRALFPPFQKYITKGYVSETESGKRLAQVVSDPSLTKSGVYWSWNNASASFENQLSEEASDVEKARKVWEISEKLVGLA
B8: Violaxanthin Deepoxidase (natural protein, Arabidopsis thaliana, UniProt Q39249 1-462, looked up)
chain: MAVATHCFTSPCHDRIRFFSSDDGIGRLGITRKRINGTFLLKILPPIQSADLRTTGGRSSRPLSAFRSGFSKGIFDIVPLPSKNELKELTAPLLLKLVGVLACAFLIVPSADAVDALKTCACLLKGCRIELAKCIANPACAANVACLQTCNNRPDETECQIKCGDLFENSVVDEFNECAVSRKKCVPRKSDLGEFPAPDPSVLVQNFNISDFNGKWYITSGLNPTFDAFDCQLHEFHTEGDNKLVGNISWRIKTLDSGFFTRSAVQKFVQDPNQPGVLYNHDNEYLHYQDDWYILSSKIENKPEDYIFVYYRGRNDAWDGYGGAVVYTRSSVLPNSIIPELEKAAKSIGRDFSTFIRTDNTCGPEPALVERIEKTVEEGERIIVKEVEEIEEEVEKEVEKVGRTEMTLFQRLAEGFNELKQDEENFVRELSKEEMEFLDEIKMEASEVEKLFGKALPIRKVR
B9: Photosystem I light harvesting complex gene 1 (natural protein, Arabidopsis thaliana, UniProt Q01667 1-241, looked up)
chain: MASNSLMSCGIAAVYPSLLSSSKSKFVSAGVPLPNAGNVGRIRMAAHWMPGEPRPAYLDGSAPGDFGFDPLGLGEVPANLERYKESELIHCRWAMLAVPGILVPEALGYGNWVKAQEWAALPGGQATYLGNPVPWGTLPTILAIEFLAIAFVEHQRSMEKDPEKKKYPGGAFDPLGYSKDPKKLEELKVKEIKNGRLALLAFVGFCVQQSAYPGTGPLENLATHLADPWHNNIGDIVIPFN
B10: Photosystem I light harvesting complex gene 3 (natural protein, Arabidopsis thaliana, UniProt Q9SY97 1-273, looked up)
chain: MAAQALVSSSLTSSVQTARQIFGSKPVASASQKKSSFVVKAAATPPVKQGANRPLWFASSQSLSYLDGSLPGDYGFDPLGLSDPEGTGGFIEPRWLAYGEIINGRFAMLGAAGAIAPEILGKAGLIPAETALPWFQTGVIPPAGTYTYWADNYTLFVLEMALMGFAEHRRLQDWYNPGSMGKQYFLGLEKGLAGSGNPAYPGGPFFNPLGFGKDEKSLKELKLKEVKNGRLAMLAILGYFIQGLVTGVGPYQNLLDHLADPVNNNVLTSLKFH
B11: Cytochrome b561-2 (natural protein, Arabidopsis thaliana, UniProt Q8L856 1-239, looked up)
chain: MAVRINAMAVTFVAHALAVIAAIMVLVWSISYRGGLAWEATNKNLIFNLHPVLMLIGFIILGGEAIISYKSLPLEKPVKKLIHLILHAIALALGIFGICAAFKNHNESHIPNLYSLHSWIGIGVISLYGFQWVYSFIVFFFPGGSTNLKSGLLPWHAMLGLFVYILAVGNAALGFLEKLTFLENGGLDKYGSEAFLINFTAIITILFGAFVVLTASAESPSPSPSVSNDDSVDFSYSAI
B12: 5′-Adenylylsulfate reductase 2 (natural protein, Arabidopsis thaliana, UniProt P92981 1-454, looked up)
chain: MALAVTSSSTAISGSSFSRSGASSESKALQICSIRLSDRTHLSQRRYSMKPLNAESHSRSESWVTRASTLIAPEVEEKGGEVEDFEQLAKKLEDASPLEIMDKALERFGDQIAIAFSGAEDVALIEYARLTGKPFRVFSLDTGRLNPETYRLFDAVEKQYGIRIEYMFPDAVEVQALVRNKGLFSFYEDGHQECCRVRKVRPLRRALKGLKAWITGQRKDQSPGTRSEIPIVQVDPVFEGLDGGVGSLVKWNPLANVEGADVWNFLRTMDVPVNALHAQGYVSIGCEPCTRPVLPGQHEREGRWWWEDAKAKECGLHKGNIKEEDGAADSKPAAVQEIFESNNVVALSKGGVENLLKLENRKEAWLVVLYAPWCPFCQAMEASYIELAEKLAGKGVKVAKFRADGEQKEFAKQELQLGSFPTILLFPKRAPRAIKYPSEHRDVDSLMSFVNLLR
B13: Ferredoxin-thioredoxin reductase subunit A (natural protein, Arabidopsis thaliana, UniProt Q9SJ89 1-146, looked up)
chain: MNLQAVSCSFGFLSSPLGVTPRTSFRRFVIRAKTEPSEKSVEIMRKFSEQYARRSGTYFCVDKGVTSVVIKGLAEHKDSYGAPLCPCRHYDDKAAEVGQGFWNCPCVPMRERKECHCMLFLTPDNDFAGKDQTITSDEIKETTANM

Biological target: T1, atToc132 A- plus G-domains bait (Arabidopsis thaliana, UniProt Q9SLF3 1-794)
T1 construct: atToc132, A. thaliana, A- and G-domains, amino acids 1-794; also called Toc132AG; atToc132AG; source: yeast two-hybrid fusion (pBT3-STE, S. cerevisiae NMY51); not shown: STE2 leader (N-terminal 13 amino acids of S. cerevisiae Ste2), N-terminal, kept; Cub-LexA-VP16, C-terminal, kept
Experiment: two-hybrid; pairwise split-ubiquitin yeast two-hybrid of isolated NubG-preys with Toc159G, Toc132G or Toc132AG bait in NMY51; growth on SD-LWHA (3-AT) and quantitative β-Gal assay, activity relative to a reference bait set to 100%
Settings: partners not purified

T1 sequence (Q9SLF3 1-794): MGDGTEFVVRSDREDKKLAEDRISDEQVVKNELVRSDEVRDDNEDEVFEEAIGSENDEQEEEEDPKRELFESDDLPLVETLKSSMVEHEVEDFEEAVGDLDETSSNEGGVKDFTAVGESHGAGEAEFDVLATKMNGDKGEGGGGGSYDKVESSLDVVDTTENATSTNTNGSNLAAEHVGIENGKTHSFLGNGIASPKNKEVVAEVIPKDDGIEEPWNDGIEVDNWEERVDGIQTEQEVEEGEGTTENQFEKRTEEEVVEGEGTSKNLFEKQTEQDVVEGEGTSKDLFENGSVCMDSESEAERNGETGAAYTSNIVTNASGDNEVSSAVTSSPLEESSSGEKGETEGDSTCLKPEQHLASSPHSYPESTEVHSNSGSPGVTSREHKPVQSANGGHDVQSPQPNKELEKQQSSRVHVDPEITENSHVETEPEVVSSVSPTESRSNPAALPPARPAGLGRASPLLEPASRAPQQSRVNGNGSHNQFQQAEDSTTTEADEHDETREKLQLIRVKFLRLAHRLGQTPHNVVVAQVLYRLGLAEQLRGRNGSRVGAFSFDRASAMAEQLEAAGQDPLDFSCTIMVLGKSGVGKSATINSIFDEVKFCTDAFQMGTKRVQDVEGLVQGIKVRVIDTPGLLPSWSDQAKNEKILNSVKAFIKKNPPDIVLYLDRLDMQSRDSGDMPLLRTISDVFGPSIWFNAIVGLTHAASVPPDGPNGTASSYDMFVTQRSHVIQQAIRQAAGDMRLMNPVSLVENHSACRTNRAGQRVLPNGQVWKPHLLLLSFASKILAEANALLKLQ

Binder | relative strength of interaction (β-Gal) with Toc132AG against Toc132G, % change | % increase in strength of interaction (β-Gal) with Toc132AG against Toc132G
B1 | -11.7% | 
B2 | -36.4% | 
B3 |  | 175%
B4 | -25.5% | 
B5 |  | 41.3%
B6 | -25.4% | 
B7 | -34.7% | 
B8 | -29.9% | 
B9 | -24.5% | 
B10 | -26.8% | 
B11 |  | 49.6%
B12 |  | 24.5%
B13 | -15% | 
